This series can be described thus: protein stability index of a GFP-peptide fusion (GPS, HEK-293T) (PSI 1-6); higher = more stable.
[1] abbreviates: treatment: DMSO, c terminus: a fixed tail appended.
[2] abbreviates: treatment: MLN4924 1 uM, 8 h, c terminus: a fixed tail appended.
The mark [3] stands for this setting: treatment: DMSO, c terminus: native.
The mark [4] stands for this setting: treatment: MLN4924 1 uM, 8 h, c terminus: native.

± gives the standard deviation.
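Further: 24-mer peptide tiles fused after GFP, lentivirally expressed, FACS-sorted into six equal bins by GFP/DsRed ratio, decoded by Illumina sequencing, PSI is the read-weighted mean bin number.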

AAFLALLRFLYSDEVQIGPETVMT [BTBD1]: the protein stability index under setting [1] came to 2.49 ± 0.78 and the protein stability index under setting [2] turned out to be 2.14 ± 0.004. On the same counts, the results for AAHPPLPLLPPAMGTEPAPSAPEA [TBX6] are 5.45 ± 0.24 and 5.52 ± 0.21. For ACCEFLESQLDPSNCLGIRDFAET [KLHL12], in that order: 2.79 ± 0.37 and 3 ± 0.5. For ACRRRDALTGHLRTHSVIKEETNH [IKZF1], in that order: 4.01 ± 0.76 and 3.76 ± 0.89. As for ACYFGHRQVVQDLLKAGAEVNVLN [OSBPL1A], the protein stability index was 2.46 ± 0.2 under setting [1] and 2.6 ± 0.38 under setting [2].

As to ADMLKQYFRDLPEPLMTNKLSETF [DLC1], the protein stability index is, setting by setting: under setting [1], 2.71 ± 0.26; under setting [2], 2.86 ± 0.22. Regarding AEDEEMNRMHESMKLFDSICNNKW [GNAI1], the protein stability index is 3.97 ± 0.21 under setting [1] and 4.02 ± 0.22 under setting [2]. For AEEAGLKNNDLVVAVNGESVETLD [PDZK1], the protein stability index by setting is: under setting [1], 5.49 ± 0.2; under setting [2], 5.51 ± 0.26. On the same counts, the results for AEEYDEKTSELLVRKWRVKSALGA [DPCD] are 3.34 ± 0.36 and 4.04 ± 0.29. Regarding AEGPNRLLYKDGFSTILHLLLGSP [LPCAT4], the protein stability index under setting [1] was found to be 2.23 ± 0.98 and the protein stability index under setting [2] stood at 2.08 ± 0.29. AEGRVVGRKDITSILRAPAYPLEL [MOSPD3] yielded a protein stability index under setting [1] of 3.27 ± 0.19 and a protein stability index under setting [2] of 3.33 ± 0.18.

In the case of AENSPYLNPQLVQPAKKPLLWSDP [ESRRG], the protein stability index stood at 3.9 ± 0.25 under setting [1] and 3.81 ± 0.23 under setting [2]. Consider AEPGALGEPGAAAPAMYDDESAID [CEBPD], for which the protein stability index is 5.6 ± 0.57 under setting [1] and 5.77 ± 0.21 under setting [2].

As to AESSVPPVTSIGIDNLGLKLEENL [SLC35F2], the protein stability index is, setting by setting: under setting [1], 4.97 ± 0.2; under setting [2], 5.13 ± 0.13. For AFAERYAPDKTSTVLTRHSQPATP [PDLIM7], the protein stability index runs as follows: under setting [1], 4 ± 0.3; under setting [2], 3.82 ± 0.18.

In the case of AFHGLSLGLSLTNGLALGPDLNIL [PSD2], the protein stability index by setting is: under setting [1], 2.57 ± 0.56; under setting [2], 2.54 ± 0.5. For the sequence AFLGPDEAFALPDSLLVVLDMDEG [SPSB4], the protein stability index under setting [1] was 2.45 ± 0.39 and the protein stability index under setting [2] was 2.6 ± 0.38. Turning to AFSPIVILTERVSLPFKPFAIILP [MIA2], under setting [2], the protein stability index amounted to 2.87 ± 0.24. As for AGSVVAAVQGLNLRSPNNFLSYYR [CCND1], the protein stability index was 2.58 ± 0.2 under setting [1] and 2.61 ± 0.32 under setting [2]. For AGTAGVGETGSGDQAGGEGKHITV [MYOZ1], in that order: 5.51 ± 0.14 and 5.05 ± 0.71. On the same counts, the results for AHGADPTHRLKDGSTMLIEAAKGG [ANKRD17] are 4.7 ± 0.31 and 4.91 ± 0.16. The sequence AHNSNWYITFQSDTDAQQAFILKR [LARP4] gave a protein stability index under setting [1] of 2.38 ± 0.25 and a protein stability index under setting [2] of 2.4 ± 0.55. On to AHRERNEFPEDPEFEAVVRQAELA [PI4K2A], for which the protein stability index is, setting by setting: under setting [1], 5.32 ± 0.12; under setting [2], 5.36 ± 0.43.

As to AHSSSNTIRSGISPNLNVVDGRLT [SASS6], the protein stability index under setting [1] turned out to be 4.16 ± 0.28 and the protein stability index under setting [2] was found to be 4.31 ± 0.12. As for AKEDGKADTKKRHTPRGHAESTSN [SMOC2], the protein stability index under setting [1] was found to be 5.53 ± 0.25 and the protein stability index under setting [2] turned out to be 5.45 ± 0.35. On the same counts, the results for AKGGSRLCTPEGWFSCQGPFDMDS [DFFB] are 3.01 ± 0.3 and 3.1 ± 0.27.

As for AKMAGIGIREASSGGGGSSSNFHI [KRT15], the protein stability index was 3.16 ± 0.4 under setting [1] and 3.14 ± 0.27 under setting [2]. Turning to AKQIMEETYKMEFMYSGVENKQVV [INTS4], the protein stability index runs as follows: under setting [1], 2.23 ± 0.31; under setting [2], 2.65 ± 0.61.

For AKRLWKVCVEHHTFFRLLLPEAPP [EPB41L3], the protein stability index is, setting by setting: under setting [1], 2.48 ± 0.88; under setting [2], 2.42 ± 0.76.

On to ALFAQVQRGALPAPDPELAAEMYQ [RSAD1], for which the protein stability index reads like this: under setting [1], 3.69 ± 0.087; under setting [2], 3.78 ± 0.34.

On to ALLALDENFDHNTLALILQIPTQN [PPFIA4], for which the protein stability index was found to be 2.21 ± 0.47 under setting [1] and 2.17 ± 0.29 under setting [2]. On to ALLTGGGSENRNHRLLNMARNNND [RNF180], for which the protein stability index by setting is: under setting [1], 3.7 ± 0.41; under setting [2], 3.76 ± 0.35. Consider ALPSVMRFCCCVAVIYLGYCFCGW [MCOLN1], for which the protein stability index under setting [1] came out at 2.76 ± 0.59 and the protein stability index under setting [2] stood at 2.83 ± 0.31. As for ALRSHLKSFSMANGLNARMMHGGS [RAB40B], the protein stability index under setting [1] worked out at 2.71 ± 0.38 and the protein stability index under setting [2] came to 2.5 ± 0.62.

For the sequence ANDGDYWRLLNPGEYVVTAKAEGF [CPXM2], the protein stability index is 2.81 ± 0.35 under setting [1] and 2.87 ± 0.081 under setting [2]. With ANMEDLTEVITASEFHPHHCNLFV [PPP2R2C], the protein stability index stood at 2.49 ± 0.3 under setting [1] and 2.41 ± 0.24 under setting [2].

As to ANQKLSEKLAAGALPHINARGPVR [CCDC3], the protein stability index is, setting by setting: under setting [1], 3.62 ± 0.43; under setting [2], 3.86 ± 0.77. As for APAQRATRGFLRSPSSDLDTDAEG [RETREG3], the protein stability index stood at 5.44 ± 0.13 under setting [1] and 5.14 ± 0.18 under setting [2]. On the same counts, the results for APGTGPAQTELLCCLVKMESLEPD [FANCE] are 3.28 ± 0.23 and 3.39 ± 0.12. In turn, APTKPHDYRQEQPETFWIQRAPQL [SPAG8] had a protein stability index under setting [1] of 3.61 ± 0.11 and a protein stability index under setting [2] of 3.73 ± 0.19. On to APVPTHSTVSELSRSPVATATSC [DUSP5], for which the protein stability index by setting is: under setting [3], 2.72 ± 0.17; under setting [4], 2.86 ± 0.13. Consider AQLQALRQKEVDFCISLLRERFME [INTS3], for which the protein stability index reads like this: under setting [1], 2.61 ± 0.27; under setting [2], 2.58 ± 0.59. As to AQNNCPAIMNALIEAGAHMDATNA [FEM1A], the protein stability index is, setting by setting: under setting [1], 4.46 ± 0.23; under setting [2], 4.49 ± 0.079. For AQRRRMDEISDHAKVLTLSDDLER [EIF5], in that order: 4.98 ± 0.26 and 5.04 ± 0.22. In the case of AQSGERECHIVVLTDDDVVDWDEE [BTBD10], the protein stability index under setting [1] stood at 5.205 ± 0.041 and the protein stability index under setting [2] is 5.14 ± 0.28. On to ARELQEALPEAPAPLLPHITATSL [BCL2L13], for which the protein stability index was 4.32 ± 0.4 under setting [1] and 4.32 ± 0.22 under setting [2]. On to ARFVSSGSGGGYGGGMRVCGFGGG [KRT15], for which the protein stability index is, setting by setting: under setting [1], 2.63 ± 0.31; under setting [2], 2.74 ± 0.25.

On to ARVNENLARKIASRNEFDRTIAET [SSNA1], for which the protein stability index is 3.95 ± 0.15 under setting [1] and 4.06 ± 0.2 under setting [2]. For ASHQQQVLPPRQPSALVPSVTEYR [MYBL2], the protein stability index turned out to be 4.38 ± 0.28 under setting [1] and 4.37 ± 0.15 under setting [2]. In the case of ASKMESTIKPRRVEPVCSGLQAQI [CHCHD6], the protein stability index reads like this: under setting [1], 3.47 ± 0.17; under setting [2], 3.6 ± 0.24.

ASLNHLDSHILLCLMGLAETPGCA [DCAF4] displayed a protein stability index under setting [1] of 3.14 ± 0.58 and a protein stability index under setting [2] of 2.82 ± 0.34. For ASQSPKKPPAKDPLADLNIKDFL [SNAP91], the protein stability index was 4.45 ± 0.29 under setting [3] and 4.58 ± 0.34 under setting [4].

Turning to ASSSPVTLRQKTVDWRRVSRLQED [SLA], the protein stability index was 3.9 ± 0.36 under setting [1] and 3.77 ± 0.32 under setting [2]. ASSVESTLPVLEASSWKKQVSHDF [FBXO34]: the protein stability index is, setting by setting: under setting [1], 3.56 ± 0.49; under setting [2], 3.67 ± 0.62. Consider ASTVLKSVGFQSNEAASLASTGVG [SLC2A12], for which the protein stability index is 4.16 ± 0.3 under setting [1] and 4.15 ± 0.35 under setting [2]. In the case of ASVINNMLAEIFCQTGGVEDQEEW [ZBED1], the protein stability index stood at 3.31 ± 0.31 under setting [1] and 3.89 ± 0.33 under setting [2]. On the same counts, the results for ATLKGPDSHYGTKGLKKVVHETPA [BTBD1] are 4.21 ± 0.34 and 4.543 ± 0.04. Regarding ATPRQVPSLQHLCRMSIRRVMPTQ [WSB1], the protein stability index runs as follows: under setting [1], 3.83 ± 0.23; under setting [2], 3.77 ± 0.15. Regarding ATVVMMTKLEERSRVKCDQYWPSR [PTPRD], the protein stability index is, setting by setting: under setting [1], 2.42 ± 0.32; under setting [2], 2.17 ± 0.38. In the case of AVAFMPEDITKGTQSLPTASASKF [AUP1], the protein stability index under setting [1] was 4.22 ± 0.18 and the protein stability index under setting [2] is 4.3 ± 0.16.

AVEAGQEECAKWLLLNNANPNLSN [RIPK4]: the protein stability index is, setting by setting: under setting [1], 3.82 ± 0.25; under setting [2], 4.26 ± 0.47. Consider AVGVLLLGLVGYYIFRVANHQKDL [DHCR7], for which the protein stability index under setting [1] was 2.84 ± 0.29 and the protein stability index under setting [2] was determined as 2.79 ± 0.53.

For the sequence AVLGFPGFSSGRHRWQVDLQLGDG [TRIM15], the protein stability index under setting [1] stood at 2.18 ± 0.069 and the protein stability index under setting [2] came to 2.22 ± 0.17. With AYFPYFKKHNVTAVVRLNKKIYEA [CDC14A], the protein stability index is, setting by setting: under setting [1], 2.34 ± 0.33; under setting [2], 2.08 ± 0.16. On the same counts, the results for AYPFYWAWLPQAKVPFSQEIKDLI [PI4K2A] are 2.23 ± 0.32 and 2.13 ± 0.14.

With CDKHSKLFEEPEDPSNRSFFSEII [PPP2R2C], the protein stability index came to 3.36 ± 0.17 under setting [1] and 3.57 ± 0.2 under setting [2].

For the sequence CEYETRLPGNHSTSQEIFRQRFRH [ZNF232], the protein stability index is, setting by setting: under setting [1], 3.48 ± 0.25; under setting [2], 3.4 ± 0.17. For the sequence CKACITRWWEDLERDFPCPVCRKT [TRIM39], the protein stability index came out at 3.97 ± 0.27 under setting [1] and 4.25 ± 0.62 under setting [2].

Regarding CLDSPGPLDSKENLENPMRRIHSL [CDC25A], the protein stability index by setting is: under setting [1], 4.27 ± 0.19; under setting [2], 3.91 ± 0.26. As for CLFSLINGDDMFVTFAAMQAQQGR [MCOLN1], the protein stability index under setting [1] turned out to be 2.97 ± 0.47 and the protein stability index under setting [2] came to 2.74 ± 0.66. CLGSLASKLSRKYVKAKKSIDKDE [FAN1] displayed a protein stability index under setting [1] of 2.7 ± 0.16 and a protein stability index under setting [2] of 2.94 ± 0.4.

In the case of CLMGLAETPGCATLLPASLFVNSH [DCAF4], the protein stability index is 2.35 ± 0.3 under setting [1] and 2.35 ± 0.34 under setting [2].

Source of the values: the supplement of paper PMC10567573.
